In publication PMC12703448 (2025):
The star is where a group is joined. Farnesyl = CC(C)=CCC/C(C)=C/CC/C(C)=C/C*; FAM = fluorescein label

Target: T1, K-Ras4B C-terminal peptide (Homo sapiens, also: FAM-labelled)
T1 chain: {FAM}-KKKKKKSKTKC(Farnesyl)-OMe
Assay: fluorescence polarization

B1: PDE6D (protein)
chain: MSAKDERAREILRGFKLNWMNLRDAETGKILWQGTEDLSVPGVEHEARVPKKILKCKAVSRELNFSSTEQMEKFRLEQKVYFKGQCLEEWFFEFGFVIPNSTNTWQSLIEAAPESQMMPASVLTGNVIIETKFFDDDLLVSTSRVRLFYV
**Q.** How did the Kd turn out when B1 was run?
**A.** 0.15 µM
